Reference: the supplement of paper PMC11316812
± gives the standard deviation of the averaged measurements.

How the values were obtained:
MCF7 = assay: percentage of EdU-negative (G0-arrested) nuclei per well, 72 h; higher = more G0 arrest; conditions: reference: sequence is the full UniProt precursor, the tested protein was the secreted form or ectodomain
hTERT-HMEC = assay: as above; conditions: reference: sequence is the full UniProt precursor, the tested protein was the secreted form or ectodomain
[1] = protein concentration 0.0225 µM
[2] = protein concentration 0.01425 µM
[3] = protein concentration 0.1425 µM
[4] = protein concentration 0.0257143 µM
[5] = protein concentration 0.257143 µM
[6] = protein concentration 0.0157525 µM
[7] = protein concentration 0.157525 µM
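Further: secreted proteins added to cultured cells, EdU pulse at the end, nuclei found by Hoechst imaging, EdU status from nuclear versus surrounding ring intensity ratio, PBS as neutral control.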

Sequence	percentage of EdU-negative (MCF7; [1])	percentage of EdU-negative (MCF7; protein concentration 0.225 µM)	percentage of EdU-negative (hTERT-HMEC; [1])	percentage of EdU-negative (hTERT-HMEC; protein concentration 0.225 µM)	also measured
MGCLLFLLLWALLQAWGSAEVPQRLFPLRCLQISSFANSSWTRTDGLAWLGELQTHSWSNDSDTVRSLKPWSQGTFSDQQWETLQHIFRVYRSSFTRDVKEFAKMLRLSYPLELQVSAGCEVHPGNASNNFFHVAFQGKDILSFQGTSWEPTQEAPLWVNLAIQVLNQDKWTRETVQWLLNGTCPQFVSGLLESGKSELKKQVKPKAWLSRGPSPGPGRLLLVCHVSGFYPKPVWVKWMRGEQEQQGTQPGDILPNADETWYLRATLDVVAGEAAGLSCRVKHSSLEGQDIVLYWGGSYTSMGLIALAVLACLLFLLIVGFTSRFKRQTSYQGVL	23.9 ± 2.6%	27.61 ± 0.11%	4.97 ± 0.24%	5.04 ± 0.17%	–
MAVKLGTLLLALALGLAQPASARRKLLVFLLDGFRSDYISDEALESLPGFKEIVSRGVKVDYLTPDFPSLSYPNYYTLMTGRHCEVHQMIGNYMWDPTTNKSFDIGVNKDSLMPLWWNGSEPLWVTLTKAKRKVYMYYWPGCEVEILGVRPTYCLEYKNVPTDINFANAVSDALDSFKSGRADLAAIYHERIDVEGHHYGPASPQRKDALKAVDTVLKYMTKWIQERGLQDRLNVIIFSDHGMTDIFWMDKVIELNKYISLNDLQQVKDRGPVVSLWPAPGKHSEIYNKLSTVEHMTVYEKEAIPSRFYYKKGKFVSPLTLVADEGWFITENREMLPFWMNSTGRREGWQRGWHGYDNELMDMRGIFLAFGPDFKSNFRAAPIRSVDVYNVMCNVVGITPLPNNGSWSRVMCMLKGRASTAPPVWPSHCALALILLFLLA [Q6UWR7]	25.6 ± 0.4%	27.791 ± 0.0037%	4.73 ± 0.19%	5.87 ± 0.68%	–
MERCPSLGVTLYALVVVLGLRATPAGGQHYLHIRPAPSDNLPLVDLIEHPDPIFDPKEKDLNETLLRSLLGGHYDPGFMATSPPEDRPGGGGGAAGGAEDLAELDQLLRQRPSGAMPSEIKGLEFSEGLAQGKKQRLSKKLRRKLQMWLWSQTFCPVLYAWNDLGSRFWPRYVKVGSCFSKRSCSVPEGMVCKPSKSVHLTVLRWRCQRRGGQRCGWIPIQYPIISECKCSC	–	–	–	–	percentage of EdU-negative (MCF7; [2]): 23.9 ± 0.44%; percentage of EdU-negative (MCF7; [3]): 25.4 ± 2.8%; percentage of EdU-negative (hTERT-HMEC; [2]): 4.77 ± 0.41%; percentage of EdU-negative (hTERT-HMEC; [3]): 5.81 ± 0.99%
MKSLTWILGLWALAACFTPGESQRGPRGPYPPGPLAPPPPPCFPFGTGFVPPPHPPPYGPGRFPPPLSPPYGPGRIPPSPPPPYGPGRIQSHSLPPPYGPGYPQPPSQPRPYPPGPPFFPVNSPTDPALPTPAP	–	–	–	–	percentage of EdU-negative (MCF7; [4]): 22.6 ± 1%; percentage of EdU-negative (MCF7; [5]): 26.45 ± 0.12%; percentage of EdU-negative (hTERT-HMEC; [4]): 5.63 ± 1.3%; percentage of EdU-negative (hTERT-HMEC; [5]): 7.43 ± 0.82%
MAFRGWRPPPPPLLLLLLWVTGQAAPVAGLGSDAELQIERRFVPDECPRTVRSGDFVRYHYVGTFPDGQKFDSSYDRDSTFNVFVGKGQLITGMDQALVGMCVNERRFVKIPPKLAYGNEGVSGVIPPNSVLHFDVLLMDIWNSEDQVQIHTYFKPPSCPRTIQVSDFVRYHYNGTFLDGTLFDSSHNRMKTYDTYVGIGWLIPGMDKGLLGMCVGEKRIITIPPFLAYGEDGDGKDIPGQASLVFDVALLDLHNPKDSISIENKVVPENCERISQSGDFLRYHYNGTLLDGTLFDSSYSRNRTFDTYIGQGYVIPGMDEGLLGVCIGEKRRIVVPPHLGYGEEGRGNIPGSAVLVFDIHVIDFHNPSDSISITSHYKPPDCSVLSKKGDYLKYHYNASLLDGTLLDSTWNLGKTYNIVLGSGQVVLGMDMGLREMCVGEKRTVIIPPHLGYGEAGVDGEVPGSAVLVFDIELLELVAGLPEGYMFIWNGEVSPNLFEEIDKDGNGEVLLEEFSEYIHAQVASGKGKLAPGFDAELIVKNMFTNQDRNGDGKVTAEEFKLKDQEAKHDEL	29.6 ± 1.2%	28.6 ± 3%	5.15 ± 0.31%	25.4 ± 1.1%	–
MRQVCCSALPPPPLEKGRCSSYSDSSSSSSERSSSSSSSSSESGSSSRSSSNNSSISRPAAPPEPRPQQQPQPRSPAARRAAARSRAAAAGGMRRDPAPGFSMLLFGVSLACYSPSLKSVQDQAYKAPVVVEGKVQGLVPAGGSSSNSTREPPASGRVALVKVLDKWPLRSGGLQREQVISVGSCVPLERNQRYIFFLEPTEQPLVFKTAFAPLDTNGKNLKKEVGKILCTDCATRPKLKKMKSQTGQVGEKQSLKCEAAAGNPQPSYRWFKDGKELNRSRDIRIKYGNGRKNSRLQFNKVKVEDAGEYVCEAENILGKDTVRGRLYVNSVSTTLSSWSGHARKCNETAKSYCVNGGVCYYIEGINQLSCKCPNGFFGQRCLEKLPLRLYMPDPKQKAEELYQKRVLTITGICVALLVVGIVCVVAYCKTKKQRKQMHNHLRQNMCPAHQNRSLANGPSHPRLDPEEIQMADYISKNVPATDHVIRRETETTFSGSHSCSPSHHCSTATPTSSHRHESHTWSLERSESLTSDSQSGIMLSSVGTSKCNSPACVEARARRAAAYNLEERRRATAPPYHDSVDSLRDSPHSERYVSALTTPARLSPVDFHYSLATQVPTFEITSPNSAHAVSLPPAAPISYRLAEQQPLLRHPAPPGPGPGPGPGPGPGADMQRSYDSYYYPAAGPGPRRGTCALGGSLGSLPASPFRIPEDDEYETTQECAPPPPPRPRARGASRRTSAGPRRWRRSRLNGLAAQRARAARDSLSLSSGSGGGSASASDDDADDADGALAAESTPFLGLRGAHDALRSDSPPLCPAADSRTYYSLDSHSTRASSRHSRGPPPRAKQDSAPL	–	–	–	–	percentage of EdU-negative (MCF7; [6]): 24.9 ± 0.53%; percentage of EdU-negative (MCF7; [7]): 26.5 ± 0.38%; percentage of EdU-negative (hTERT-HMEC; [6]): 4.61 ± 0.33%; percentage of EdU-negative (hTERT-HMEC; [7]): 5.33 ± 1%
